Test results reported in the supplement of paper PMC10567573.

B1: NP_116010.1 (parent)
chain: HSLRAVSTDPPHHDHHDEFCLMP

Columns and labels:
[1] = variants of: B1; test: protein stability index of a GFP-peptide fusion (GPS, HEK-293T) (PSI 1-6); higher = more stable; conditions: c terminus: native
[2] = variants of: B1; test: as above; conditions: c terminus: native; remark: listed apart in the source

| Variant | protein stability index [1] | protein stability index [2] |
| --- | --- | --- |
| T8G | 2.68 | 2.59 |
| T8C | 2.93 | 2.64 |
| T8A | 2.75 | 4.04 |
| T8L | 2.36 | 2.95 |
| T8D | 2.53 | 2.23 |
| T8M | 2.48 | 2.27 |
| T8E | 2.45 | 2.89 |
| T8W | 1.99 | 2.87 |
| T8Y | 2.54 | 2.14 |
| T8I | 2.59 | 2.13 |
| T8Q | 2.46 | 2.69 |
| T8S | 2.13 | 2.85 |
| T8R | 2.33 | 3.01 |
| T8F | 2.38 | 1.87 |
| T8N | 2.36 | 2.4 |
| T8V | 2.26 | 2.82 |
| T8K | 2.28 | 2.99 |
| T8H | 2.48 | 1.79 |
| H1C | 2.68 | 2.48 |
| H1M | 2.8 | 1.72 |
| H1N | 3.37 | 1.64 |
| H1F | 2.24 | – |
| H1G | 3.41 | 2.65 |
| H1W | 2.18 | 1.93 |

| Variant | protein stability index [1] | protein stability index [2] |
| --- | --- | --- |
| H1S | 3.04 | 2.26 |
| H1R | 2.68 | 2.35 |
| H1T | 3.55 | 2.54 |
| H1Y | 2.63 | 1.19 |
| H1Q | 3.06 | 1.9 |
| H1E | 3.5 | 2.41 |
| H1K | 3.29 | 2.43 |
| H1D | 3.42 | 3.31 |
| H1I | 2.75 | 1.82 |
| H1L | 3.11 | 1.68 |
| H1A | 3.26 | 1.49 |
| H1P | 3.39 | 2.21 |
| R4V | 2.23 | 1.96 |
| R4W | 2.38 | 2.9 |
| R4T | 3.08 | 2.84 |
| R4I | 2.92 | 1.55 |
| R4L | 2.73 | 3.03 |
| R4C | 2.69 | 3.21 |
| R4K | 2.58 | 1.8 |
| R4M | 2.45 | 2 |
| R4G | 3.32 | 2.64 |
| R4E | 3.58 | 2.41 |
| R4Q | 3.06 | 1.83 |
| R4F | 2.11 | 2.22 |

| Variant | protein stability index [1] | protein stability index [2] |
| --- | --- | --- |
| R4A | 3.09 | 1.82 |
| P11D | 2.73 | 2.3 |
| P11Q | 2.56 | 1.99 |
| P11V | 2.21 | 1.74 |
| P11I | 2.58 | 2.28 |
| P11A | 2.67 | 2.67 |
| P11S | 2.34 | 2.58 |
| P11C | 2.44 | 1.57 |
| P11T | 2.24 | 1.9 |
| P11G | 2.59 | 2.46 |
| P11F | 2.44 | 1.5 |
| P11R | 2.42 | 2.66 |
| P11L | 2.55 | 4.46 |
| P11E | 2.72 | 2.81 |
| P11M | 2.71 | 2.95 |
| P11N | 2.5 | 2.41 |
| P11K | 2.65 | 2.58 |
| P11Y | 2.26 | 3.15 |
| P11W | 2.16 | 2.29 |
| D9M | 2.23 | 2.04 |
| D9V | 2.11 | 1.94 |
| D9N | 2.38 | 1.93 |
| D9S | 2.44 | 3.56 |
| D9G | 2.42 | 3.24 |

| Variant | protein stability index [1] | protein stability index [2] |
| --- | --- | --- |
| D9F | 2.44 | 3.37 |
| D9E | 2.48 | 1.95 |
| D9Y | 2.37 | 2.37 |
| D9K | 2.44 | 1.84 |
| D9C | 2.45 | 3.11 |
| D9R | 2.2 | – |
| D9W | 2.52 | 1.81 |
| H12D | 2.73 | 2.2 |
| H12W | 2.27 | 3.29 |
| H12E | 2.87 | 2.75 |
| H12M | 2.52 | 2.12 |
| H12V | 2.73 | 2.67 |
| H12A | 2.44 | 1.65 |
| H12K | 2.87 | 3.08 |
| H12F | 2.62 | 2.49 |
| H12Y | 2.46 | 2.19 |
| H12L | 2.79 | 2.83 |
| H12I | 2.53 | 1.98 |
| H12S | 2.8 | 2.33 |
| H12G | 2.68 | 2.16 |
| H12R | 2.32 | 2.76 |
| H12Q | 2.69 | 2.12 |
| H12C | 2.37 | 2.4 |
| H12N | 2.58 | 2.79 |

| Variant | protein stability index [1] | protein stability index [2] |
| --- | --- | --- |
| S7L | 2.08 | – |
| S7D | 2.81 | 2.26 |
| S7Y | 2.31 | 2.02 |
| S7T | 2.33 | 3.06 |
| S7G | 2.58 | 2.83 |
| S7I | 2.4 | 2.93 |
| S7H | 2.53 | – |
| S7V | 2.39 | 2.7 |
| S7C | 2.48 | 2.82 |
| S7Q | 2.58 | 3.14 |
| S7W | 2.31 | 3.98 |
| S7M | 2.74 | 2.65 |
| S7F | 2.23 | – |
| S7R | 2.36 | 1.88 |
| S7N | 2.27 | 2.64 |
| L3R | 2.82 | 2.21 |
| L3E | 2.28 | 2.11 |
| L3D | 2.5 | 2.14 |
| L3K | 2.76 | 2.04 |
| L3A | 2.35 | 2.02 |
| L3Y | 2.38 | – |
